B1: TPR t1 (parent)
chain: GACCAAUCUGCCCUCAGAGCUCGAGAACAUCUUCGGAUGCAGAGGAGGCAGGCUUCGGUGGCGCGAUAGCGCCAACGUCCUCAACCUCCAAUGCAUCCCACCACAUGAUGAUGCCUGAAGAGCCUUGGUUUUUUG

Variants of: B1
Assay: polymerase ribozyme fitness, log enrichment relative to wild type (log ratio); higher = more active; in vitro selection for triplet polymerase activity
Method in brief: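 Mutant libraries of each subunit of a heterodimeric triplet polymerase ribozyme were built by PCR and transcribed. Each library went through one round of in vitro selection in triplicate: annealing with biotinylated primer, partner subunit and triplets, frozen incubation at −7 °C, gel excision of extended constructs, streptavidin-bead capture and RT-PCR. Input and output libraries were Illumina-sequenced; only genotypes with ≥10 input reads and ≥1 read per output were kept. Fitness is log2(genotype enrichment/wild-type enrichment), using inverse-variance-weighted replicate averages.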

In order of falling “polymerase ribozyme fitness (log ratio)” value:
1. U21A U112A  1.06
2. C20U A37U C79U U112A  0.591
3. U21A G69U  0.577
4. U21A G77A  0.00839
5. U21A G61C U112A U133C  -0.24
6. C20A G45A G113U  -0.291
7. U21A C56U G57C  -0.599
8. U21A C72G  -0.599
9. C20G C53U G113U  -0.634
10. C20G U21A U112A  -0.639
11. C20A G122A C123G  -0.681
12. U21A C80U  -0.894
13. U21A C88G  -0.967
14. U21A A41U A90G  -0.995
15. U21A U38G C56A U78C  -1.08
16. U21A C49U  -1.1
17. C20U G61A  -1.13
18. C20U C62U  -1.15
19. C20U G45A C53G  -1.22
20. U21A G60A C86U  -1.23
21. U21A U54C G93C  -1.26
22. C20U G71U  -1.29
23. C20U G93A  -1.32
24. C20G G39C A90U C94U G113U C115U U116G  -1.36
25. C20U G61C C82A C124G  -1.38
26. C20U A37U C56U  -1.39
27. C20U G60U C72U C94U  -1.4
28. C20U C98U  -1.43
29. U21A U81A  -1.49
30. C20U A83C  -1.52
31. C20U G120U  -1.57
32. U21A A24G  -1.64
33. U21A U38G C56A  -1.66
34. C20U C64U  -1.68
35. C20U A111C  -1.7
36. C20U G60C  -1.73
37. C20U C53U G113C  -1.84
38. C20U C72U  -1.9
39. U21A G61C  -1.97
40. C20U U81A  -1.98
41. C20U C72A A83G G113U  -2.08
42. U21A C89U G110A U112C  -2.24
43. U21A C89G  -2.25
44. C20U A43U C53G  -2.28
45. C20U C86A  -2.3
46. U21A C72U  -2.3
47. C20U G60U U78A G113C  -2.3
48. U21A G44U C97U G113A  -2.33
49. C20U C70U C88A U106C  -2.34
50. C20G U112A  -2.38
51. C20A G60U U92C A121C  -2.4
52. C20U A90U G93A  -2.41
53. U21A G42C U59C U130G  -2.41
54. U21A A91U  -2.43
55. C20U G57C C104A  -2.45
56. U21A G42U G60C  -2.45
57. C20U G42A G71U C80U C82A U112C  -2.53
58. U21A A26G C73U G77A  -2.54
59. C20G C89G C98A G120C  -2.55
60. C20A U106C  -2.55
61. C20G U55G C72U A119G  -2.6
62. U21A C34A A37G C98G  -2.68
63. U21A A50G C72U A95G A105C  -2.73
64. C20U G47A C49G C123A U125G  -2.77
65. C20A U131G  -2.8
66. U21A G61C C114A  -2.8
67. C20U G61C  -2.87
68. C20U A46U  -2.88
69. C20U G44A C64U  -2.89
70. C20U C102U  -2.92
71. C20U G52C U78A C102U C124U  -2.94
72. C20U G52U C72U  -3.02
73. C20U C40U G61U U96G C115G U134A  -3.07
74. C20U U55G G69U C99A  -3.12
75. C20U C53A  -3.19
76. U21A C70A  -3.21
77. C20U C102A  -3.26
78. U21A C49U G63U  -3.27
79. C20U C89U A95U C115U  -3.32
80. U21A G42U G63C C82A  -3.34
81. C20U A46U C89U  -3.4
82. C20U C62G  -3.42
83. U21A C72G G77C C85A  -3.48
84. C20U C85U A100U  -3.48
85. C20U C70U G113U G120U  -3.51
86. C20G A46U C62U C114U  -3.55
87. U21A A24G G36U G61C G120U U132A  -3.58
88. C20G G42U G113C  -3.64
89. C20G G61A  -3.66
90. C20G A41C C73A U78A A84C C123U U133G  -3.7
91. C20U C80U C82G C85G  -3.74
92. C20A G77A G135U  -3.74
93. C20G C85G  -3.76
94. C20U G45U A50C G77A U78C A84U C123A  -3.79
95. C20U G60U G110A  -3.8
96. U21A G52C C56A C76U C101U  -3.81
97. U21A A29C G48A  -3.86
98. C20U G42U C56A C115G  -3.91
99. C20G C56G A95C G117U C124A  -3.93
100. C20U C56U G63C C94A G120C  -3.97
101. C20A U96A  -4.02
102. C20G G58A C89G G117U  -4.04
103. C20U C34A  -4.05
104. C20U G48U A91C C94G  -4.07
105. C20U G69A G120U  -4.11
106. C20A G39U  -4.11
107. C20U G117U A119U  -4.12
108. C20G A90C C98U C124A U126A  -4.21
109. C20U G52C C114A C123U  -4.27
110. C20U C73U A95C U129A  -4.3
111. C20U G110C  -4.31
112. C20U A90U G110U  -4.33
113. C20U G45A G117U G127C U130G  -4.33
114. C20G C40U G42U C56A  -4.45
115. U21A G42A A46U G60A  -4.47
116. U21A C28U A37G G61U  -4.5
117. C20U G63C A84C A105U  -4.52
118. C20G G60C  -4.55
119. C20U U116G  -4.59
120. C20U G60C C99U  -4.59
121. C20G G69U C99A  -4.6
122. U21A G61A C88A G110A  -4.74
123. C20A G117U U133A  -4.77
124. C20G A46U G120A  -4.96
125. C20G A43C C53A A119G  -5.03
126. C20G C49G  -5.11
127. C20A G65A C94G A105G G110A U125G G128U  -5.13
128. C20G A29G C88U U106A  -5.14
129. C20A G61C A121G G128U  -5.15
130. U21C A24G A26G C53G G60U  -5.16
131. C20A G45U A100U  -5.17
132. C20U C40A G69C C94G G120U  -5.2
133. C20A U21A U54C C94U U109G  -5.29
134. C20U G48A C53U C99U  -5.43
135. C20U G61A C98A  -5.48
136. U21A A29G A43U C56G A83C A91C G120U  -5.54
137. U21A C70A C86U A111C  -5.59
138. C20G G52U  -5.6
139. C20G C53G G57C A91G  -5.64
140. C20U C49U C62U G69A  -5.65
141. C20G C88U C114G U130C U132A  -5.66
142. C20U C72A C102U U109A C114A U133G  -5.73
143. C20U A46G C94U G107A U109G G120A  -5.88
144. U21A U59A U81G C82G C115U  -5.96
145. C20G A118G  -5.96
146. C20G A24G G45C C73A C88A C115U  -5.98
147. U21A G45U G63A G113C  -6.02
148. U21A C102G G113U A118U U129G  -6.08
149. U21A A103U  -6.15
150. C20U G25C C64A C70U C98G A111U  -6.27
151. C20G C34A A41G C53A G69C G120C  -6.31
152. U21A A50C A68G  -6.32
153. C20G G110C G120C  -6.34
154. C20G G42A G45A U54G C79U C123U  -6.38
155. C20G G25C  -6.42
156. U21A G35U A74U A111U  -6.43
157. C20U C34G  -6.47
158. C20G C115U A121C  -6.48
159. C20U A26C G52A G69A C72G A118G G120C U126G  -6.5
160. C20U U33G  -6.55
161. C20G G52C A95G C102A C115U  -6.79
162. C20G C64A C98U A105C C114U U116A  -6.79
163. C20G G44C C73U U78A A95C  -6.9
164. C20U C34G A43U C70U C82U C114A  -7.14
165. U21A A27U U92A  -7.38
166. U21A G23A C76G G113U  -7.66
167. C20G C62A C98A G110C C114A  -8.01
